# According to the RNAGym collection of RNA variant scans (doi:10.7554/elife.80360):
# B1: Hairpin Ribozyme (parent)
# chain: GUCCUCUUUCACGUGCGCGUGAAAGAGAGAAGUGAACCAGAGAAACACACGUUGUGGUAUAUUACCUGGUA
# Variants of: B1
# Experiment: self-cleavage, relative activity (ratio to wild type); higher = more cleavage; co-transcriptional
row,Variant,self-cleavage
1,G27C G34C,0.971
2,G27C G34A,0.161
3,G27C G34U,0.779
4,A28C C65U,0.249
5,A28C C65A,0.231
6,A26C U58G,0.496
7,A26C U58C,0.771
8,A26C U58A,0.623
9,G27C A35G,0.181
10,G27C A35C,0.143
11,G27C U52A,0.167
12,G27C U52G,0.163
13,G27C U52C,0.22
14,G27C U67G,0.0952
15,G27C C37A,0.121
16,A28G A45C,0.279
17,A28G C66A,0.231
18,G27U A30U,0.116
19,A26G G54U,0.349
20,A28G U33G,0.211
21,G27U A61G,0.171
22,G27U A61U,0.107
23,A26U A59C,0.137
24,A26G A61G,0.161

row,Variant,self-cleavage
1,A26G A30U,0.108
2,A26G C50A,0.262
3,G27U A35C,0.44
4,G27U A35U,0.203
5,A28G A71C,1.26
6,A28G A71G,0.941
7,A26C C50A,0.117
8,G27C A43G,0.107
9,G27C A43C,0.107
10,G27U U62G,0.0869
11,G27A C66G,0.133
12,A26U A41G,0.841
13,A26U A41U,0.989
14,G27A C38A,0.127
15,A26G G68C,0.312
16,G27A G69U,0.182
17,G27U U60A,0.243
18,G27C,0.172
19,G27A,0.454
20,G27U,0.282
21,A26U C46A,0.146
22,G27A C50G,0.131
23,G27A A28G,0.36
24,G27A A28C,0.295

row,Variant,self-cleavage
1,A26G U67C,0.263
2,A26G U67A,0.148
3,G27A A45G,0.196
4,G27A A45C,0.186
5,A28C A44U,0.046
6,G27A G54A,0.221
7,G27A G54U,0.213
8,A26U A39U,0.266
9,G27A G57U,0.157
10,A26G C46U,0.267
11,A26G C46A,0.0799
12,G27C U55G,0.113
13,G27C U55A,0.156
14,A28C C66A,0.0844
15,G27C U33A,0.0754
16,G27C U33G,0.0854
17,G27C U33C,0.117
18,G27A U60G,0.213
19,G27A U60A,0.334
20,A26G C48A,0.13
21,G27U C50G,0.175
22,G27U C50U,0.214
23,A26C U60C,0.602
24,A26C U60G,0.365

row,Variant,self-cleavage
1,A26C C65G,0.226
2,A28C U58C,0.545
3,A28C A41G,0.352
4,G27U C48U,0.099
5,A26G G27U,0.121
6,A26G G27A,0.275
7,G27U G42U,0.188
8,A28G G54C,0.432
9,A28C G42U,0.0852
10,A28C U52C,0.584
11,G27U U52C,0.377
12,G27U U52G,0.114
13,A28C A64C,0.245
14,A28C A64U,0.237
15,A28C A64G,0.285
16,G27C G69C,0.1
17,G27U G54A,0.26
18,G27U G54U,0.208
19,G27U G54C,0.133
20,G27A A71C,0.95
21,G27A U58G,0.151
22,G27A C48G,0.151
23,A26G A31C,0.114
24,A26G A31U,0.183

row,Variant,self-cleavage
1,G27C C48U,0.231
2,A26C C46U,0.172
3,G27C G54U,0.192
4,G27C G54C,0.151
5,A26G A59G,0.158
6,A26G A59C,0.162
7,G27A U67A,0.0995
8,G27A U67G,0.175
9,A28C C48A,0.122
10,G27C A36C,0.113
11,G27C A36G,0.14
12,G27C A36U,0.128
13,A26G U70C,0.89
14,G27U U55A,0.152
15,G27A C46U,0.127
16,A28G A30U,0.0576
17,G27U G34C,1.16
18,G27C A31U,0.223
19,G27A G42U,0.147
20,A28C A49G,0.173
21,A28C A49U,0.192
22,A26G A45G,0.132
23,A28C C50U,0.168
24,G27C U53C,0.318

row,Variant,self-cleavage
1,G27U A28U,0.148
2,G27C C50U,0.0886
3,G27C C50G,0.114
4,A26C G57A,0.141
5,G27A U55A,0.169
6,G27A G29A,0.189
7,A26U C66G,0.16
8,A26U G34C,1.51
9,A26U G34A,0.954
10,G27U G32C,0.129
11,G27A U62G,0.221
12,G27A U62C,0.13
13,A26U U70C,0.721
14,G27U C66A,0.169
15,A28G A47G,0.198
16,A26U A31G,0.389
17,A26U A31U,0.0397
18,A26C G27A,0.139
19,A26U U53A,0.474
20,G27U U63C,0.0849
21,A26G A44C,0.0629
22,A26G A44G,0.241
23,A28G G69U,0.331
24,A28C G51U,0.746

row,Variant,self-cleavage
1,A26G G69A,0.451
2,A26G A41C,1.25
3,G27U C65U,0.125
4,G27U C65G,0.188
5,A28G G57C,0.263
6,A26U G57U,0.143
7,G27C C65A,0.146
8,A26G G40U,0.128
9,A28C C37G,0.199
10,G27A A47G,0.129
11,G27U A47U,0.192
12,G27U U67C,0.0907
13,G27U U67G,0.111
14,A26C U33G,0.0995
15,G27A G40A,0.143
16,A26C G40A,0.295
17,G27U A64G,0.205
18,G27A A61G,0.114
19,A26U A71C,1.19
20,A26C U67C,0.21
21,A26C U67A,0.0843
22,A26G U55A,0.283
23,G27A A31C,0.193
